Data from US7138254.

System: cytochrome C

Chain of biotin conjugated trypsin (P00760 24-246): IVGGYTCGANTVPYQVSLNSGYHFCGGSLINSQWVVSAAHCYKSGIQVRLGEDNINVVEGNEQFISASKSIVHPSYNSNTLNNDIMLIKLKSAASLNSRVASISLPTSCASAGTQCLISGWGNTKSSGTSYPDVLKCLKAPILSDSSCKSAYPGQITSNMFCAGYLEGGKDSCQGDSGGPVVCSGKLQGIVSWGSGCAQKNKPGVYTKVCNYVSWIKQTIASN
Chain of trypsin (P00760 24-246): as above

| Substance | peptide maps (capillary electrophoresis of FITC labeled digest), three runs over two weeks | peptide profiles of digested cytochrome C (capillary electrophoresis of FITC labeled digest) |
| --- | --- | --- |
| biotin conjugated trypsin | all capillaries of the treated cassettes have the same peptide maps in the three runs | the peptide profiles of digested cytochrome C obtained from this approach and the approach described in Example 26 are consistent and reproducible |
| trypsin | the control capillary cassette showed some protein digestion only in the first run, but no protein digestion in the second or the third run | The obtained peptide profiles of digested cytochrome C are consistent and reproducible between each run and comparable to data obtained with full volume reactions |
